# From the supplement of paper PMC9233669
# Fewer inactive variants are shown than the library holds.
# What was measured:
# biotinyl-Ile-oxazolone = assay: self-aminoacylation, catalytic enhancement (BIO) (fold over background); higher = more active; k-Seq, kA / k0A0; sequences stand for … in GGGAAUGGAUCCACAUCUACGAAUUC…UUCACUGCAGACUUGACGAAGCUG
# In short: (§1)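 Working in 50 μL HEPES/NaCl/KCl/MgCl2/CaCl2 buffer with 5% acetonitrile at pH 6.9–7.0, mutagenized RNA pools (0.43 μM; 21-nt variable region) were reacted with 2–1250 μM of each biotinyl-aminoacyl-oxazolone for 90 minutes at room temperature. Streptavidin capture followed, with quantification by triplicate qPCR and Illumina sequencing. Catalytic enhancement is reported as median kA over the uncatalyzed rate, the low-activity peak of a bimodal Gaussian fit to the data.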
# biotinyl-Leu-oxazolone = assay: self-aminoacylation, catalytic enhancement (BLO) (fold over background); higher = more active; k-Seq, kA / k0A0; sequences stand for … in GGGAAUGGAUCCACAUCUACGAAUUC…UUCACUGCAGACUUGACGAAGCUG
# In short: as §1
# biotinyl-Phe-oxazolone = assay: self-aminoacylation, catalytic enhancement (BFO) (fold over background); higher = more active; k-Seq, kA / k0A0; sequences stand for … in GGGAAUGGAUCCACAUCUACGAAUUC…UUCACUGCAGACUUGACGAAGCUG
# In short: as §1
# biotinyl-Val-oxazolone = assay: self-aminoacylation, catalytic enhancement (BVO) (fold over background); higher = more active; k-Seq, kA / k0A0; sequences stand for … in GGGAAUGGAUCCACAUCUACGAAUUC…UUCACUGCAGACUUGACGAAGCUG
# In short: as §1
# biotinyl-Trp-oxazolone = assay: self-aminoacylation, catalytic enhancement (BWO) (fold over background); higher = more active; k-Seq, kA / k0A0; sequences stand for … in GGGAAUGGAUCCACAUCUACGAAUUC…UUCACUGCAGACUUGACGAAGCUG
# In short: as §1
# biotinyl-Met-oxazolone = assay: self-aminoacylation, catalytic enhancement (BMO) (fold over background); higher = more active; k-Seq, kA / k0A0; sequences stand for … in GGGAAUGGAUCCACAUCUACGAAUUC…UUCACUGCAGACUUGACGAAGCUG
# In short: as §1
Sequence,self-aminoacylation (biotinyl-Ile-oxazolone),self-aminoacylation (biotinyl-Leu-oxazolone),self-aminoacylation (biotinyl-Phe-oxazolone),self-aminoacylation (biotinyl-Val-oxazolone),self-aminoacylation (biotinyl-Trp-oxazolone),self-aminoacylation (biotinyl-Met-oxazolone)
UGUACCCUGGUCAUCGAGUGA [Fam2.1 aminoacylation ribozyme variant],4.06,7.2,10.3,3.66,8.02,5.72
UUAACCCUGGUCAUCGAGUGA [Fam2.1 aminoacylation ribozyme variant],5.63,12,20.2,5.9,11.5,11.7
UUACACUUCAAGCAAUCGGUC [Fam1B.1 aminoacylation ribozyme variant],1.25,1.5,30.4,1.14,15.7,1.26
UUACUUCAAAAAAUCGGUCUG [Fam1A.1 aminoacylation ribozyme variant],1.44,1.29,7.17,0.984,5.65,1.22
UUACUUCAAACAAUCGGUCUC [Fam1A.1 aminoacylation ribozyme variant],1.2,1.4,31.6,1.04,17.2,1.17
UUACUUCAAACAAUCGGUCUG [Fam1A.1 aminoacylation ribozyme variant],1.3,1.69,37.4,1.22,20.7,1.29
UUACUUCAAACAAUCUGUCUG [Fam1A.1 aminoacylation ribozyme variant],1.45,1.38,3.15,1.35,2.09,1.42
UUACUUCAAACAAUGGGUCUG [Fam1A.1 aminoacylation ribozyme variant],1.05,1.06,0.83,1.05,1.23,1.03
UUACUUCAAACCAUCGGUCUG [Fam1A.1 aminoacylation ribozyme variant],1.09,0.847,1.23,1.03,1.02,1.06
UUACUUCAAGCAAUCGGUCUG [Fam1A.1 aminoacylation ribozyme variant],0.993,1.26,5.97,0.95,3.89,1.12
UUACUUCACACAAUCGGUCUG [Fam1A.1 aminoacylation ribozyme variant],1.27,1.17,1.66,1.28,1.03,1.06
UUACUUCAGACAAUCGGUCUG [Fam1A.1 aminoacylation ribozyme variant],1.14,1.3,1.73,1.12,1.12,1.11
UUACUUUAAACAAUCGGUCUG [Fam1A.1 aminoacylation ribozyme variant],1.11,0.878,1.4,1.11,1.25,1.38
UUGCUUCAAACAAUCGGUCUG [Fam1A.1 aminoacylation ribozyme variant],2.12,3.55,147,1.91,53.4,2.25
UUUACCCUGGUCAACGAGUGA [Fam2.1 aminoacylation ribozyme variant],3,5.66,26.1,3.5,8.31,5.61
UUUACCCUGGUCACCGAGUGA [Fam2.1 aminoacylation ribozyme variant],3.3,7.47,44.3,4.12,8,7.62
UUUACCCUGGUCAUCCAGUGA [Fam2.1 aminoacylation ribozyme variant],3.12,4.72,15.7,2.98,6.23,4.91
UUUACCCUGGUCAUCGAGAGA [Fam2.1 aminoacylation ribozyme variant],1.28,1.32,2.19,1.3,1.86,1.61
UUUACCCUGGUCAUCGAGCGA [Fam2.1 aminoacylation ribozyme variant],2.16,3.21,2.17,2.43,3.52,3.05
UUUACCCUGGUCAUCGAGUGU [Fam2.1 aminoacylation ribozyme variant],22.7,71.5,542,26.3,75.4,82.3

Sequence,self-aminoacylation (biotinyl-Ile-oxazolone),self-aminoacylation (biotinyl-Leu-oxazolone),self-aminoacylation (biotinyl-Phe-oxazolone),self-aminoacylation (biotinyl-Val-oxazolone),self-aminoacylation (biotinyl-Trp-oxazolone),self-aminoacylation (biotinyl-Met-oxazolone)
UUUACCCUGGUCAUCGCGUGA [Fam2.1 aminoacylation ribozyme variant],7.82,16.9,128,9.57,19,18.9
UUUACCCUGGUCAUCGUGUGA [Fam2.1 aminoacylation ribozyme variant],1.66,3.11,15.3,2.06,3.71,2.98
UUUACCCUGGUCUUCGAGUGA [Fam2.1 aminoacylation ribozyme variant],2.46,3.58,13.9,2.79,5.27,3.61
UUUACGCUGGUCAUCGAGUGA [Fam2.1 aminoacylation ribozyme variant],3.56,4.78,10.2,4.07,6.37,4.46
UUUACUCUGGUCAUCGAGUGA [Fam2.1 aminoacylation ribozyme variant],3.99,5.43,7.42,3.58,6.74,5.53
UUUCACCUAGGCCAUCGGGUG [Fam2.2 aminoacylation ribozyme variant],3.27,4.34,20.8,4,4.57,3.71
UUUCACCUAGGGCAUCGGGUG [Fam2.2 aminoacylation ribozyme variant],3.17,3.49,26,3.9,3.56,3.15
UUUCACCUAGGUCAUCGAGUG [Fam2.2 aminoacylation ribozyme variant],5.72,9.37,16.4,4.45,4.82,7.16
UUUCACCUAGGUCAUCGGGAG [Fam2.2 aminoacylation ribozyme variant],1.68,1.82,1.4,1.35,2.02,1.73
UUUCACCUAGGUCAUCGGGCG [Fam2.2 aminoacylation ribozyme variant],3.06,5.21,4.77,3.19,4.57,4.77
UUUCACCUAGGUCAUCGGGUA [Fam2.2 aminoacylation ribozyme variant],14.7,36.1,184,13.9,21.2,27.4
UUUCACCUAGGUCAUCUGGUG [Fam2.2 aminoacylation ribozyme variant],1.76,2.22,9.3,1.86,2.5,1.88
UUUCACCUAGGUCCUCGGGUG [Fam2.2 aminoacylation ribozyme variant],3.82,4.92,35.6,4.22,5.68,4.17
UUUCACCUAGGUCUUCGGGUG [Fam2.2 aminoacylation ribozyme variant],4.04,5.06,29,4.51,5.4,4.63
UUUCACCUAGGUGAUCGGGUG [Fam2.2 aminoacylation ribozyme variant],3.55,4.15,24.3,3.67,5.69,3.5
UUUCACCUAGGUUAUCGGGUG [Fam2.2 aminoacylation ribozyme variant],2.92,3.72,19.6,2.93,4.62,3.71
UUUCACGUAGGUCAUCGGGUG [Fam2.2 aminoacylation ribozyme variant],2.89,3.88,32.2,4.25,4.06,4.24
UUUCACUUAGGUCAUCGGGUG [Fam2.2 aminoacylation ribozyme variant],4.22,6.73,46.7,4.19,6.64,6.17
UUUGCCCUGGUCAUCGAGUGA [Fam2.1 aminoacylation ribozyme variant],16.5,41,294,18.1,46.1,45.5
